This note sets out measurements from patent US20020182701.

The data set addresses T1, Met-Gly-Met-Met peptide substrate.
T1 chain: MGMM

B1: N-terminal HA-tagged wild-type yeast MetAP2 (protein)
chain: YPYDVPDYAMTDAEIENSPASDLKELNLENEGVEQQDQAKADESDPVESKKKKNKKKKKKKSNVKKIELLFPDGKYPEGAWMDYHQDFNLQRTTDEESRYLKRDLERAEHWNDVRKGAEIHRRVRRAIKDRIVPGMKLMDIADMIENTTRKYTGAENLLAMEDPKSQGIGFPTGLSLNHCAAHFTPNAGDKTVLKYEDVMKVDYGVQVNGNIIDSAFTVSFDPQYDNLLAAVKDATYTGIKEAGIDVRLTDIGEAIQEVMESYEVEINGETYQVKPCRNLCGHSIAPYRIHGGKSVPIVKNGDTTKMEEGEHFAIETFGSTGRGYVTAGGEVSHYARSAEDHQVMPTLDSAKNLLKTIDRNFGTLPFCRRYLDRLGQEKYLFALNNLVRHGLVQDYPPLNDIPGSYTAQFEHTILLHAHKKEVVSKGDDYGKMRFQMASSLGIILL
Regarding B1, the “Specific activity (MetAP activity on 2 mM Met-Gly-Met-Met)” value is “Specific activity for the wild-type MetAP2 was 11±0.5 U/mg”.

B2: N-terminal HA-tagged yeast MetAP2 (H174A) (protein)
chain: YPYDVPDYAMTDAEIENSPASDLKELNLENEGVEQQDQAKADESDPVESKKKKNKKKKKKKSNVKKIELLFPDGKYPEGAWMDYHQDFNLQRTTDEESRYLKRDLERAEHWNDVRKGAEIHRRVRRAIKDRIVPGMKLMDIADMIENTTRKYTGAENLLAMEDPKSQGIGFPTGLSLNHCAAAFTPNAGDKTVLKYEDVMKVDYGVQVNGNIIDSAFTVSFDPQYDNLLAAVKDATYTGIKEAGIDVRLTDIGEAIQEVMESYEVEINGETYQVKPCRNLCGHSIAPYRIHGGKSVPIVKNGDTTKMEEGEHFAIETFGSTGRGYVTAGGEVSHYARSAEDHQVMPTLDSAKNLLKTIDRNFGTLPFCRRYLDRLGQEKYLFALNNLVRHGLVQDYPPLNDIPGSYTAQFEHTILLHAHKKEVVSKGDDYGKMRFQMASSLGIILL
B2: the “catalytic activity in vitro” value is reported as “displayed no detectable activity against a peptide substrate (MGMM)”.
